From patent US20110263454A1, “Methods of Identifying Functional Characteristics of Promoters, Transcription Modifying Proteins and Transcription Modulating Agents” (Salk Institute for Biological Studies, priority 2008, published 2011)

How the values were obtained:
mAdiponectin promoter = test: NHR-promoter luciferase screen, mAdiponectin promoter; assay type: cell-based, mouse; details: for Luc. act., normalized to lacZ / Normalized Luc. act., normalized to control: Adiponectin, HR component without or with its ligand; for mAdiponectin promoter reporter activity: transcription factor +/- ligand, control = 1.00
Summary of the method: (§1)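 CV-1 cells were co-transfected with 50 ng NHR (homodimer or NHR/RXR heterodimer), 100 ng promoter-luciferase construct and 50 ng LacZ. Luciferase was normalized to LacZ and to a no-NHR/no-ligand control.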

hMyoD promoter = test: NHR-promoter luciferase screen, hMyoD promoter; assay type: cell-based, human; details: for Luc. act., normalized to lacZ / Normalized Luc. act., normalized to control: MyoD promoter reporter, co-transfected HR, without or with its ligand; for Normalized Luc. act., normalized to control: relative to control; for luciferase activity normalized to lacZ activity and to a control, hMyoD: hMyoD promoter-luciferase, CV-1 cells, NHR +/- ligand, control = 1.00
Summary of the method: as §1

mPOMC promoter = test: NHR-promoter luciferase screen, mPOMC promoter; assay type: cell-based, mouse; details: for Results of assays of transcription factor (+/- ligand) with mPOMC: Table 6d, luciferase activity relative to control (control = 1.00); for Luc. act., normalized to lacZ / Normalized Luc. act., normalized to control: mPOMC promoter, HR component with or without ligand; for Normalized Luc. act., normalized to control: relative to control
Summary of the method: as §1

hIRF7 promoter = test: NHR-promoter luciferase screen, hIRF7 promoter; assay type: cell-based, human; details: for Normalized Luc. act., normalized to control / Luc. act., normalized to lacZ: IRF7 promoter reporter; for Normalized Luc. act., normalized to control: HR without or with its ligand, relative to control; for Luc. act., normalized to lacZ: hormone receptor (HR) without or with its ligand; for hIRF7 promoter reporter activity: transcription factor +/- ligand, control = 1.00
Summary of the method: as §1

mAgrp promoter = test: NHR-promoter luciferase screen, mAgrp promoter; assay type: cell-based, mouse; details: for Results of assays of transcription factor (+/- ligand) with mAgrp: Table 6d, luciferase activity relative to control (control = 1.00); for Luc. act., normalized to lacZ / Normalized Luc. act., normalized to control: mAgrp promoter, HR component with or without ligand; for Normalized Luc. act., normalized to control: relative to control
Summary of the method: as §1

B1: FXR: Farnesoid X Receptor (NR1H4), cDNA driver (protein, UniProt Q96RI1 1-486, looked up)
Bile acid receptor: MVMQFQGLENPIQISPHCSCTPSGFFMEMMSMKPAKGVLTEQVAGPLGQNLEVEPYSQYSNVQFPQVQPQISSSSYYSNLGFYPQQPEEWYSPGIYELRRMPAETLYQGETEVAEMPVTKKPRMGASAGRIKGDELCVVCGDRASGYHYNALTCEGCKGFFRRSITKNAVYKCKNGGNCVMDMYMRRKCQECRLRKCKEMGMLAECMYTGLLTEIQCKSKRLRKNVKQHADQTVNEDSEGRDLRQVTSTTKSCREKTELTPDQQTLLHFIMDSYNKQRMPQEITNKILKEEFSAEENFLILTEMATNHVQVLVEFTKKLPGFQTLDHEDQIALLKGSAVEAMFLRSAEIFNKKLPSGHSDLLEERIRNSGISDEYITPMFSFYKSIGELKMTQEEYALLTAIVILSPDRQYIKDREAVEKLQEPLLDVLQKLCKIHQPENPQHFACLLGRLTELRTFNHHHAEMLMSWRVNDHKFTPLLCEIWDVQ
Luc. act., normalized to lacZ (mAdiponectin promoter): 62.6 | Normalized Luc. act., normalized to control (mAdiponectin promoter): 1.0 | mAdiponectin promoter reporter activity (mAdiponectin promoter): 1.00 | Luc. act., normalized to lacZ (hMyoD promoter): 36.5 | Normalized Luc. act., normalized to control (hMyoD promoter): 0.6 | luciferase activity normalized to lacZ activity and to a control, hMyoD (hMyoD promoter): 0.58 | Results of assays of transcription factor (+/- ligand) with mPOMC (mPOMC promoter): 1.20 | Luc. act., normalized to lacZ (mPOMC promoter): 82.5 | Normalized Luc. act., normalized to control (mPOMC promoter): 1.2 | Normalized Luc. act., normalized to control (hIRF7 promoter): 1.6 | Luc. act., normalized to lacZ (hIRF7 promoter): 41.8 | hIRF7 promoter reporter activity (hIRF7 promoter): 1.59 | Results of assays of transcription factor (+/- ligand) with mAgrp (mAgrp promoter): 1.14 | Luc. act., normalized to lacZ (mAgrp promoter): 45.1 | Normalized Luc. act., normalized to control (mAgrp promoter): 1.1

B2: PXR: Pregnane X Receptor (NR1I2), cDNA driver (protein, UniProt O75469 1-434, looked up)
Nuclear receptor subfamily 1 …: MEVRPKESWNHADFVHCEDTESVPGKPSVNADEEVGGPQICRVCGDKATGYHFNVMTCEGCKGFFRRAMKRNARLRCPFRKGACEITRKTRRQCQACRLRKCLESGMKKEMIMSDEAVEERRALIKRKKSERTGTQPLGVQGLTEEQRMMIRELMDAQMKTFDTTFSHFKNFRLPGVLSSGCELPESLQAPSREEAAKWSQVRKDLCSLKVSLQLRGEDGSVWNYKPPADSGGKEIFSLLPHMADMSTYMFKGIISFAKVISYFRDLPIEDQISLLKGAAFELCQLRFNTVFNAETGTWECGRLSYCLEDTAGGFQQLLLEPMLKFHYMLKKLQLHEEEYVLMQAISLFSPDRPGVLQHRVVDQLQEQFAITLKSYIECNRPQPAHRFLFLKIMAMLTELRSINAQHTQRLLRIQDIHPFATPLMQELFGITGS
Luc. act., normalized to lacZ (mAdiponectin promoter): 97.1 | Normalized Luc. act., normalized to control (mAdiponectin promoter): 1.5 | mAdiponectin promoter reporter activity (mAdiponectin promoter): 1.55 | Luc. act., normalized to lacZ (hMyoD promoter): 50.6 | Normalized Luc. act., normalized to control (hMyoD promoter): 0.8 | luciferase activity normalized to lacZ activity and to a control, hMyoD (hMyoD promoter): 0.80 | Results of assays of transcription factor (+/- ligand) with mPOMC (mPOMC promoter): 1.30 | Luc. act., normalized to lacZ (mPOMC promoter): 89.4 | Normalized Luc. act., normalized to control (mPOMC promoter): 1.3 | Normalized Luc. act., normalized to control (hIRF7 promoter): 1.4 | Luc. act., normalized to lacZ (hIRF7 promoter): 36.3 | hIRF7 promoter reporter activity (hIRF7 promoter): 1.38 | Results of assays of transcription factor (+/- ligand) with mAgrp (mAgrp promoter): 1.51 | Luc. act., normalized to lacZ (mAgrp promoter): 60.0 | Normalized Luc. act., normalized to control (mAgrp promoter): 1.5

B3: CAR: Constitutive Androstane Receptor (NR1I3), cDNA driver (protein, UniProt Q14994 1-352, looked up)
Nuclear receptor subfamily 1 …: MASREDELRNCVVCGDQATGYHFNALTCEGCKGFFRRTVSKSIGPTCPFAGSCEVSKTQRRHCPACRLQKCLDAGMRKDMILSAEALALRRAKQAQRRAQQTPVQLSKEQEELIRTLLGAHTRHMGTMFEQFVQFRPPAHLFIHHQPLPTLAPVLPLVTHFADINTFMVLQVIKFTKDLPVFRSLPIEDQISLLKGAAVEICHIVLNTTFCLQTQNFLCGPLRYTIEDGARVSPTVGFQVEFLELLFHFHGTLRKLQLQEPEYVLLAAMALFSPDRPGVTQRDEIDQLQEEMALTLQSYIKGQQRRPRDRFLYAKLLGLLAELRSINEAYGYQIQHIQGLSAMMPLLQEICS
Luc. act., normalized to lacZ (mAdiponectin promoter): 46.8 | Normalized Luc. act., normalized to control (mAdiponectin promoter): 0.7 | mAdiponectin promoter reporter activity (mAdiponectin promoter): 0.74 | Luc. act., normalized to lacZ (hMyoD promoter): 51.2 | Normalized Luc. act., normalized to control (hMyoD promoter): 0.8 | luciferase activity normalized to lacZ activity and to a control, hMyoD (hMyoD promoter): 0.81 | Results of assays of transcription factor (+/- ligand) with mPOMC (mPOMC promoter): 0.92 | Luc. act., normalized to lacZ (mPOMC promoter): 63.8 | Normalized Luc. act., normalized to control (mPOMC promoter): 0.9 | Normalized Luc. act., normalized to control (hIRF7 promoter): 1.4 | Luc. act., normalized to lacZ (hIRF7 promoter): 37.3 | hIRF7 promoter reporter activity (hIRF7 promoter): 1.42 | Results of assays of transcription factor (+/- ligand) with mAgrp (mAgrp promoter): 1.06 | Luc. act., normalized to lacZ (mAgrp promoter): 42.2 | Normalized Luc. act., normalized to control (mAgrp promoter): 1.1
